B1: C. elegans APE-1 (sole ASPP homolog), endogenous, tagged with GFP and 3xflag [C. elegans] / C. elegans GSP-2 (PP1 homolog), endogenously HaloTagged [modified: JF646 dye on the HaloTag (single-molecule assay); JFX646 dye on the … (parent)
chain 1: MVTTSSGGGIGYPANNGVTQVSLIHSSDSVRTVSTAPIYRPTSSMASTMAHKSSTAPFISANQRMSKPPVRVVAQPPPPHPQALSQQYHQQNPMMMYSAPNTRPHVIPTMQVQPTMAAQIKRNNPVNAQFQNPSEMIADYGVKPQSVEMVQRVRAVRRQVADEETELRRLRELEHETAQLQNKNYGRERELNVQGSMLKEAQLELRNASMRAQSLNKHLEEMYRRRQTAAAAALVEQRKMQQHQILLARAANQVSTQEVIRPRASVEPFQVNNTQQQQPSPQMMKSEEFSEKRDLNGQTGSYDAIDGSGDHQKIPTEPSYLAPCKENQQKYSELSKMASTDPHSNHSSPSTSSQKAPTLITFSPPSFEQKINSSTMTRDSPFVERPTSFGDSLDESRLRSGKTDLVSLRSDSLKATKRRSWAASEGTSMSEAEMIHRLLDEQRRGRSHFIPQLPTSQEEPSAITSETYAEEVVNSESKQVATSSDSTNNLELPTEQMVLGSDTTTEEDASSCSTRSDDGQNLEMEVAIERRTVKGILRRPNEKMNKGRIEFDPLALLLDAALEGELDLVRSSASKLTDVSQANDEGITALHNAICAGHYEIVRFLIENDADVNAQDSDGWTPLHCAASCNNLPMVRQLVEGGGCVLASTLSDMETPVEKCEEDEDGYDGCLKYLSAAHNSTGSINTGKVYAAYGYEAAFEDELSFDAGDELTVIEKDKVDKNWWTCEKNNGEKGQVPRTYLALYPSLKYRKKLNFVMFDLPLESNNNVE
chain 2: MDVEKLNLDNIISRLLEVRGSKPGKNVQLTESEIKGLCQKSREIFLSQPILLELEAPLKICGDVHGQYYDLLRLFEYGGFPPESNYLFLGDYVDRGKQSLETICLLLAYKIKYPENFFLLRGNHECASINRIYGFYDECKRRYNIKLWKTFTDCFNCLPVAAIIDEKIFCCHGGLSPDLQSMEQIRRIMRPTDVPDQGLLCDLLWSDPDKDVTGWGENDRGVSFTFGPEVVAKFLHKHDLDLICRAHQVVEDGYEFFAKRQLVTLFSAPNYCGEFDNAGSMMTVDETLMCSFQILKPADKKKYPYGAGGVGSNRPVTPPRNAPAAQPKKGAKK

Tests used:
[1] = variants of: B1; assay: single-molecule photobleaching analysis by TIRF microscopy; conditions: with C. elegans GSP-2 (PP1 homolog)
[2] = variants of: B1; assay: MudPIT analysis of 3xflag immunoprecipitations from whole-worm lysates; conditions: with C. elegans GSP-2 (PP1 homolog) in whole-worm lysates of the MudPIT experiment [C. elegans (endogenous in whole worms)]; for response (% of total protein): parent: 10.8; for screen value: parent: 20

chain 1 N583K
screen value ([1]; p = 0.008 vs APE-1, read off a plot): 34% | response (% of total protein) ([2]; bait recovered in same sample: 0.22 % of total protein (wild-type bait 0.54)): 0.87 | screen value [2]: 4

chain 1 H591Y
screen value ([1]; p=0.531 vs APE-1, read off a plot): 37% | response (% of total protein) ([2]; bait recovered in same sample: 0.12 % of total protein (wild-type bait 0.54)): 0.87 | screen value [2]: 7
